Test results: the RNAGym collection of RNA variant scans (doi:10.1073/pnas.2313332121)

B1: TPR t1 (parent)
chain: GACCAAUCUGCCCUCAGAGCUCGAGAACAUCUUCGGAUGCAGAGGAGGCAGGCUUCGGUGGCGCGAUAGCGCCAACGUCCUCAACCUCCAAUGCAUCCCACCACAUGAUGAUGCCUGAAGAGCCUUGGUUUUUUG

Variants of: B1
Test: polymerase ribozyme fitness, log enrichment relative to wild type (log ratio); higher = more active; in vitro selection for triplet polymerase activity
In short: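 Genotype fitness is the logarithm of its enrichment divided by wild-type enrichment, using inverse-variance-weighted averages of replicates. That logarithm is base 2. Enrichment was measured by Illumina sequencing of input and output libraries from one triplicate in vitro selection round, with frozen incubation at −7 °C, on PCR-built, transcribed mutant libraries of each subunit of a heterodimeric triplet polymerase ribozyme, retaining genotypes with ≥10 input reads and ≥1 read per output.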

Variant | polymerase ribozyme fitness (log ratio)
G10A C15U G47A U112A C124A G127C | -1.98
U9G U78C A121U | 1.6
G10A A41C C56U U78G C82U | -1.79
G10A C64U A103U C123U | -3.16
G10C C70U | -1.63
G10A G51U C101A | -4.71
G10U A43C C76U A90C C115A | -2.83
G10A G35A | -3.71
G10A U21G G60A A103C C114A | -5.69
G10C G57A C88U U112G | -3.48
G10U A27U U109A | -4.99
G10C C40U G45U | -1.47
G10A A41C C53G U133C | -1.29
G10A G122A | 0.549
G10A C13A A18G | -6.95
G10A C11U C89A | -2.04
G10A G48C C64A G113A A119G C124G | -6.38
G10A C56G C82G C115G A121U | -0.467
G10A G61U C86U U92C G93A | -2.24
G10C G117A | -1.75
G10A C13U C15U C79A A100U C124G U131G | -0.0361
G10C C11G C20U A43U C72U | -2.23
G10A G61C A83U | -2.03
G10A U38C G45A C79U | -1.29

Variant | polymerase ribozyme fitness (log ratio)
G10A G42A | -1.32
G10A G57U C72A C79A U96A | -2.33
G10A G58C | 0.631
G10C A18C C62U U133A | -3.86
U9G G110U | -1.36
U9G G110A | -0.713
G10A G51A C70U A119G | -4.32
G10C A16C C53U G117U | -4.5
G10C C13U U78G C79U C89U | -0.171
U9G U21A G127A | -0.983
G10C A16U | -1.98
G10A C13A U112A | 0.644
U9G G63U C64A C88A A119G | -6.72
G10A C13A G39C U133A | -1.46
G10C G39A C76U A84U U87A | -2.28
G10U A26U | -2.52
G10C U87G C115U A119G G120C U131G | -1.59
G10U A41C A91U G120C U129C | -1.99
U9G U14C U38G G61U C72U A91U C124U | -3.69
G10A C15G C82A G93A | -4.03
G10A C13A C94U U131A | -1.56
G10A C40G | -0.282
U9G U92A U96G U109A | -5.59
G10C G52U G58C A84U | -2.42

Variant | polymerase ribozyme fitness (log ratio)
U9G U109C | -3.57
G10U A29U C86A U112C | -1.11
G10C G39C C49G A111U | -4.94
U9G G61U | 0.804
G10A U21G G44C C80U C123G | -2.04
U9G U54A C56A G71A | -2.22
G10A A41U | -0.89
G10A G36A C56A A105U U112A | -3.87
G10A C11G C12U U96C C104U C123G U131G | 2.08
G10C A41C C70U | -3.72
G10A C11G G51U | -2.64
G10C A18U C88A C97U U106C | -5.16
G10A C13U U55A C76U C97A U116G | -6.1
U9G U59C C101U | -0.449
G10A G61A A111G | 0.12
G10A A29U A41C C73U A74U G113U | -3.95
G10A A29C C124U | -0.613
G10C C40G A66U | -2.18
G10C U109A | -6.66
G10A C82A A95U | -0.318
G10C G120C | 1.04
G10A C13A C22A A46G C49A G122A | -6.21
U9G G63U | -0.815
G10A G44A A46U G48C | -1.66

Variant | polymerase ribozyme fitness (log ratio)
G10A G17C C56U | -2.35
G10A C13U | 0.219
G10A C76U U78A C85A U125G | -1.57
G10A G61A A91C C123U | 0.979
G10A G63A C89A | -3.25
G10A U54G G71C C102U A111U U129G | -5.93
G10A U87A C115G C123G | -1.54
G10C G42C G61C C123A G128A | -6.33
G10A C22G G47A G60A | -3.93
G10U A29U C70G G113A | -4.17
G10C A68G | -4.75
G10U A26U G42A U106A U125G | -4.36
G10A G42U G110A | -4
U9G U32A C62G U92G G117C | -5.56
U9G U54G U81A U125A G128U | -3.65
U9G G61A A66U C82A | -1.09
G10A A37U C53A C56G C85U G110U | -2.81
G10C C11U A84U A108G | -2.5
G10A G17A | -3.1
G10A G35U C56G C88A G120C U133A | -4.15
G10A C76U G110C | -5.64
G10A G42U C72A C76G C115A | -3.07
G10A C82A C102U | -1.68
G10A G69U U78C A95G C115U | 0.452

Variant | polymerase ribozyme fitness (log ratio)
G10A C64U | -0.954
G10A U59C G61A A83G C114G C115U | -7.23
G10C C49G G61A U81C G120C | -4.13
G10A C53A C72U | 0.298
G10A G71U U87C | -0.267
G10A A37C A84C A95G | -0.834
G10C C11A U54G A68U U109A G128U | -7.09
G10A A74U | -0.813
G10A A18U C70G G77A U87A C115A | -7.14
G10C G52C G77U A121U | 0.617
G10C C56U | -0.594
G10C G60U | -0.819
G10A G60U | -0.0901
G10C A16U C115A | -2.52
U9G U109A G120C | -4.55
G10A C94A C97U U106A | -0.642
U9G G71A C80U C98U G110U | -6.92
G10C G61U C114U | -1.8
G10C G110U | -2.66
G10C A66C C79U | -2.72
G10C A27G A43U G110U | -5.07
G10A U106A | 0.457
G10A U106C | -0.101
G10A C72U | -0.532

Variant | polymerase ribozyme fitness (log ratio)
G10A C72A | 0.427
U9G G61U C70U C82U C115U C123A | -3.33
G10A A27C C56A G57A C72U U78G G93C | -4.76
G10A C72U C89G G93U | -2.93
G10C C80A U130G | -3.78
G10A C62U G69A A121U G127U | -1.42
G10A C34U U87G | -3.98
U9G U14A A46U A68G | -4.4
G10A A37U G71C C104U | -0.936
U9G G69U G107U | -2.73
G10A C11U C40U C97A G120A | -4.4
G10A U30A U54A | -5.83
G10C A18U C73G G113C | -5.21
G10C A43G | -3.12
G10C A37C | -1.41
G10C A50C G69U G110A G113C | -6.42
G10C G35A U59C U112A | -5.77
G10A C12G C40A C115U A119G G120C U131A | -0.621
G10A G58C C123A | 1.18
G10A U87G G110U | -1.12
G10C G61A U96A | -0.958
G10C C11U C94G | -0.146
G10C A26G C62G | -4.17
G10U A18G A37U C40U U112A U126C | -1.57

Variant | polymerase ribozyme fitness (log ratio)
G10U A27C G44C G69U C88G G93A C114A | -6.93
G10C C85A | -0.827
G10C G52U G60A C89A | -4.24
U9G G60U G77A U78C C98A G113C | -5.81
G10U A37C C85A | -1.32
G10A A29U G69U A83U C114G C123G | -2.26
G10A G17A U106A | -3.51
G10A G17A C82A | -3.46
G10A C13U C22G G35C C101A U131G | -4.66
G10C C12A U54C G122A | 0.0391
G10A A37U G117U U133A | -4.32
G10C C56G C123U | 1.26
U9G U92G C115G U132C | -0.718
G10C G17U G63A | -4.45
G10A C31U G61C C82A C94G C124U | -5.7
G10A C12A A29G G52U C56A G57C | -2.57
G10C G45A C104A | -2.44
G10A G39U | -0.557
G10A G17U A18U C115U C123G U130A | -4.27
G10A C34A C40U G71C G77U C88A G113A | -6.08
G10A C13A C64A U112A | -7.66
G10A A66G A103U U106A G110U G120A C124A G127A | -6.98
G10C A66G A83U | -1.48
